The text below walks through data of paper doi:10.1101/868190 (bioRxiv, 2019).

For the test, the target named is T1, His-hPPARγ (231-505) ligand-binding domain, wild-type (human, UniProt P37231-1 231-505).
T1 sequence: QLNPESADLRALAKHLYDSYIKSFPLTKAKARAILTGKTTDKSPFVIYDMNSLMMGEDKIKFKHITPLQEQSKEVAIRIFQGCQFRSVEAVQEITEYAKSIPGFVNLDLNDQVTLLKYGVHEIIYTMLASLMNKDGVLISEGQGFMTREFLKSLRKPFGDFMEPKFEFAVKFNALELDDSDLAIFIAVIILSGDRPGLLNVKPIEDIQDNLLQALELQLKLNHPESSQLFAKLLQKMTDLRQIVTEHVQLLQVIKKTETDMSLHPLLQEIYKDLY
The test can be described thus: MST.

Ends that are not written are not given here.

Regarding NLGLEDIIRKALMG (also: fluorescent label, dye and position not given here) [fluorescent NCoR1 peptide (2260-NLGLEDIIRKALMG-2273)], the binding result is listed as “binds”. The result for EAEEPSLLKKLLLAPA (also: fluorescent label, dye and position not given here) [fluorescent PGC1α peptide (137-EAEEPSLLKKLLLAPA-152)] reads “binds”.
